This is an account of results in patent publication US20260191907A1.

Test [1] deals with Recombinant FGFR4 (G&P Biosciences) (human) (UniProt P22455). The experiment in a line: SPR (BIAcore T200), single cycle kinetics, FGFR4 amine-immobilised (12'000 RU), negative control nanobody as analyte, heterogeneous ligand model, component 1 (KD1).
The target is the same in test [2]. In words: SPR (BIAcore T200), single cycle kinetics, FGFR4 amine-immobilised (12'000 RU), negative control nanobody as analyte, heterogeneous ligand model, component 2 (KD2). For orientation: In SPR one partner is held on a chip, and binding of the other changes the refractive index at the surface.
Test [3] has the same target. The experiment in a line: SPR (BIAcore T200), single cycle kinetics, FGFR4 amine-immobilised (12'000 RU), negative control nanobody as analyte, heterogeneous ligand model, component 2 (koff2).
Test [4] shares this target. The experiment in a line: SPR (BIAcore T200), single cycle kinetics, FGFR4 amine-immobilised (12'000 RU), negative control nanobody as analyte, heterogeneous ligand model, component 1 (kon1).
The target is the same in test [5]. The experiment in a line: SPR (BIAcore T200), single cycle kinetics, FGFR4 amine-immobilised (12'000 RU), negative control nanobody as analyte, heterogeneous ligand model, component 1 (koff1).
Test [6] deals with FGFR4 expressed on the surface of RMS cells (Rh4-FR4 wt, Rh30) (human) (UniProt P22455). In words: flow cytometry, recombinant nanobody at 30 µg/ml on Rh4-FR4 wt cells, anti-6xHis-FITC detection; equals the background of the secondary antibody alone. On the technique in general: In flow cytometry, cells or beads pass a laser one at a time.
The target of test [7] is Recombinant FGFR4 (G&P Biosciences) (human) (UniProt P22455). The experiment in a line: SPR (BIAcore T200), single cycle kinetics, FGFR4 amine-immobilised (12'000 RU), negative control nanobody as analyte, heterogeneous ligand model, component 2 (kon2).

Recombinant FGFR4 (G&P Biosciences) (human), sequence (P22455 22-369 limits assumed): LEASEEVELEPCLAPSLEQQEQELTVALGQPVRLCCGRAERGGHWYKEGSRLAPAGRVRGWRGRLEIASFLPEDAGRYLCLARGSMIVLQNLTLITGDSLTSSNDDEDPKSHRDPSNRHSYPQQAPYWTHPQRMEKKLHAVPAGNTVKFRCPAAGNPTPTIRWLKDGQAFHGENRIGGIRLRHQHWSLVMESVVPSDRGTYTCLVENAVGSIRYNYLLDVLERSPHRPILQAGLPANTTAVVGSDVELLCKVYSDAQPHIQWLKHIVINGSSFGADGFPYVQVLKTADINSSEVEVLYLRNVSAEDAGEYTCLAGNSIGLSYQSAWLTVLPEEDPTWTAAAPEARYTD
FGFR4 expressed on the surface of RMS cells (Rh4-FR4 wt, Rh30) (human), sequence (P22455 22-802 limits assumed): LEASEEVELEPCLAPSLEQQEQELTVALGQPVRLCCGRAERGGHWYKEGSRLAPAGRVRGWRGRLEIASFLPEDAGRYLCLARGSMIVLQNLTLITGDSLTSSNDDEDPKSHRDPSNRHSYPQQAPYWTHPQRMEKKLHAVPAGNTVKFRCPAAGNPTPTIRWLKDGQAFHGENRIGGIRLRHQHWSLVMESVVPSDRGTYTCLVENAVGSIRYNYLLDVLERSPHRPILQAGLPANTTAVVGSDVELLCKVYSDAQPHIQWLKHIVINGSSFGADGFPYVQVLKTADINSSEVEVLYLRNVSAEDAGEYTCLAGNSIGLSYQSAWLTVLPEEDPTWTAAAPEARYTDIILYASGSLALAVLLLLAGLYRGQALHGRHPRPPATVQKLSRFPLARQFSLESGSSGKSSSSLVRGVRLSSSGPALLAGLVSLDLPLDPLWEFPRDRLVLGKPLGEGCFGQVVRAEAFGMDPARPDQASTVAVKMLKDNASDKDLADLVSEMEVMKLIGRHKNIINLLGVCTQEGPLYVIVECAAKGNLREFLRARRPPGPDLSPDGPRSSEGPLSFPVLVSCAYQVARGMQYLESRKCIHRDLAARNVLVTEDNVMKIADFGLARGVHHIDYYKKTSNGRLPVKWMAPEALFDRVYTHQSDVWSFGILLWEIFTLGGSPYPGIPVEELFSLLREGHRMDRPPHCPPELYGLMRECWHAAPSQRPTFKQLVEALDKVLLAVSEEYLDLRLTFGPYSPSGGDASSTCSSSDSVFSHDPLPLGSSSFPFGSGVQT

The Kd is the concentration at which binding is half-saturated. As a reminder, the koff is the first-order rate constant of dissociation. The kon is the second-order rate constant of association. Consider “anti-mCherry nanobody (negative control) (VHH)”, for which the Kd in test [1] was 1.96 µM; in test [2], 2.18 µM. Moreover, the off-rate (koff) in test [3] worked out at 0.00505 s⁻¹; in test [5] it was 0.00511 s⁻¹. The kon in test [4] was found to be 2600 M⁻¹ s⁻¹; in test [7] it was 2320 M⁻¹ s⁻¹. The median fluorescence intensity (MFI) in test [6] was determined as 200 MFI.
